Test [1] addresses T1, human CD39 expressed on cells (human, UniProt P49961 1-510).
T1 construct: also called ENTPD1; CD39 on JVM-13, ARH-77, IM-9, HUVEC cells and on CD39-transduced mouse sarcoma cells
T1 sequence: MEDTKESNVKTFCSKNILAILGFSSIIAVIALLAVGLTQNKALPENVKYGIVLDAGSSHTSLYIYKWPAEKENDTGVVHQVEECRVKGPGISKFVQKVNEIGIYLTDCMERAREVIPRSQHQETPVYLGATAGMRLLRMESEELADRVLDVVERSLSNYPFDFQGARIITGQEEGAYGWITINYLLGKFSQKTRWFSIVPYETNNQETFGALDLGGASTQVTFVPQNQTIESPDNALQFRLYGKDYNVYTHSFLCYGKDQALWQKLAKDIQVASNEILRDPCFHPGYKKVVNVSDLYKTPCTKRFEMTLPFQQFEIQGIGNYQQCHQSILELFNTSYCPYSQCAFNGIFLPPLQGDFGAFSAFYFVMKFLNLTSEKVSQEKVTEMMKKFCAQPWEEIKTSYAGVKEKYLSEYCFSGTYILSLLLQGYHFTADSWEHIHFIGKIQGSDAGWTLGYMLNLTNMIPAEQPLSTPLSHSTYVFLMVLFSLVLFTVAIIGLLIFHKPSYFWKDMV
In words: flow cytometry on JVM-13 cells (endogenous human CD39). How it is done: Binding of antibody was also assessed in a cell line that expresses endogenous human CD39 (e.g. the B-prolymphocytic leukemia cell line JVM-13). Thirty-five anti-CD39 antibodies as described in Example 2 were tested for their binding to JVM-13 cells. […] Median fluorescence intensities for each primary antibody concentration were used to derive a flow EC50/Kd using the one site—specific binding with Hill slope model in Prism (GraphPad Prism Software). Results are shown as Flow EC50 in Table 8.
(A flow cytometer gives signals particle by particle.)

Test [2] concerns the target T1, human CD39 expressed on cells. Briefly: cell-based or functional assay.
Test [3] shares this target. In words: cell-based or functional assay. The source holds these as a separate data set.
Test [4] has as its target T2, recombinant human CD39 (R&D Systems) (human, UniProt P49961 38-478).
T2 construct: bought; also called CD39 antigen (R&D Systems); ENTPD1
T2 sequence: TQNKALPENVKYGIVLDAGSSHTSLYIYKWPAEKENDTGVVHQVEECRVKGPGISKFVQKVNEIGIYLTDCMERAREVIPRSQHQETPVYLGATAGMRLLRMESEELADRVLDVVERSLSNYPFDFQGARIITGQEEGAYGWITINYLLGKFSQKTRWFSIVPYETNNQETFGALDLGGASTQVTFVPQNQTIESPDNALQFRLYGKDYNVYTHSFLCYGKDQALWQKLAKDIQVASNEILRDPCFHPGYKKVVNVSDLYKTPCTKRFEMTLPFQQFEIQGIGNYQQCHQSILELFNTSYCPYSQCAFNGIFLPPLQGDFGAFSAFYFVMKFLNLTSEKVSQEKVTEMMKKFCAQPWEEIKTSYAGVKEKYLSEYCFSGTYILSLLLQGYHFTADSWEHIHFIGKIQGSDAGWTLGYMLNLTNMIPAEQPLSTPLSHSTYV
In words: BLI (Octet QK384); antibody on anti-mouse IgG Fc sensor, recombinant human CD39 in solution. How it is done:
Additional binding assays were conducted. Affinity measurements of thirty-five purified anti-CD39 antibodies as described in Example 2 were carried out on the OctetQK384 sytem (ForteBio). After coating anti-mouse IgG Fc sensors with a purified anti-CD39 antibody, association and dissociation of recombinant human CD39 (R&D Systems) was monitored. Affinity (KD) and kinetic constants (ka and kd) were derived using ForteBio's software.
On the technique in general: Biolayer interferometry detects binding as a change in optical thickness at a sensor tip.

Test [5] deals with T1, human CD39 expressed on cells. In words: cell-based or functional assay. The source holds these as a separate data set.
The target of test [6] is T2, recombinant human CD39 (R&D Systems). In words: SPR (ProteOn XPR36); antibody captured by anti-mouse antibody, CD39 in solution, 1:1 fit; ProteOn XPR36 SPR, Table 9. The procedure:
(§1) Affinity measurements of four exemplary purified anti-CD39 antibodies (5-13A, 5-71A, 5-165C and 9-31A) were also carried on the ProteOn XPR36 (BioRad) using a GLM sensor chip. The running buffer contained 10 mM HEPES, 150 mM NaCl, 0.005% Tween-20 at pH 7.4. All data were collected at 25 degrees C. Anti-mouse capturing antibody was amine coupled at four densities on flow cells using standard s—NHS/EDC activation. A dilution series of […], 16.6, 5.5 and 1.85 nM CD39 antigen (R&D Systems) was tested for binding to the anti-CD39 antibody surfaces. The data were processed by subtracting the response from the inter-reference surfaces as well as the buffer blank injection. The processed response data from four density surfaces were globally fit to a simple 1:1 interaction model using Scrubber 2 (Biologic Software Pty Ltd).

The target is the same in test [7]. In words: SPR (ProteOn XPR36); antibody captured by anti-mouse antibody, CD39 in solution, 1:1 fit. The procedure:
as §1

The results in this text go back to US20170335007A1 (Xencor, published 2017).

B1: anti-CD39 monoclonal antibody 9-8B (antibody, V domains shown)
VH: QIQLVQSGPELKKPGETVKISCKASGYTFTHYGMNWVKQAPGKGLKWMGWINTYTGELTYADDFKGRFAFSLETSASTAYLQINNLKNEDTATYFCARRAYYRYDYVMDYWGQGTSVTVSS
VL: DIVMTQSQKFMSTSVGDRVSVTCKASHNVGTNVAWYQQKPGQSPKALIYSASYRYSGVPGRFTGSGSGTDFTLTISNVQSEDLAEYFCHQYNNYPYTFGGGTKLEIK
notes: purified mouse hybridoma antibody, IgG2a isotype; also called R21-9-8B; R29-9-8B
What is called EC50 is the concentration needed to bring the measured effect to its halfway point. Broadly, the Kd is the constant that tells how readily two partners part at equilibrium. By koff is commonly meant the first-order rate constant of dissociation. By kon is commonly meant a measure of how fast the partners come together. Take B1: in test [1], the EC50 worked out at 0.26 nM. The “% Inhibition of ATPase Activity in ARH-77 cells (antibody at 1200 ng/mL)” value in test [2] was 36.5%. Besides, the “% Inhibition of ATPase Activity in IM-9 cells (antibody at 1200 ng/mL)” value in test [3] was 29.8%. Besides, in test [4], the Kd was determined as 3.1 nM, the dissociation rate constant (koff) came to 0.000848 s⁻¹ and the kon came out at 273000 M⁻¹ s⁻¹. For the same molecule, the “% Inhibition of ATPase Activity in HUVEC cells (antibody at 900 ng/mL)” value (“% Inhibition … (antibody at 900 ng/mL)” for short) in test [5] was 33.7%.

B2: anti-CD39 monoclonal antibody 5-165C (antibody, V domains shown)
VH: EVQLVESGGDLVKPGGSLKLSCAAFGFTFSRYGMSWVRQTPDKRLEWVATITSGGIYTYYPDSVKGRFTISRDNAKNTLYLQMSSLKSEETAMYYCARHGQFGDYYGMDYWGQGTSVTVSS
VL: DVVMTQTPLSLPVSLGDQASISCRSSQSLLHSNGNTYLHWYLQKPGQSPKLLIYKVSNRFSGVPDRFSGSGSGTDFTLKISRVEAEDLGVYFCSQSTHVPYTFGGGTKLEIK
notes: purified mouse hybridoma antibody, IgG2a isotype; also called R21-5-165C; R29-5-165C
On to B2, for which it took 0.11 nM to reach a half-maximal effect in test [1] (EC50). Also, the “% Inhibition of ATPase Activity in ARH-77 cells (antibody at 1200 ng/mL)” value in test [2] was -2.5%. Also, the “% Inhibition of ATPase Activity in IM-9 cells (antibody at 1200 ng/mL)” value in test [3] is -0.1%. For the same molecule, in test [4], the Kd came out at 2.53 nM, the off-rate constant (koff) was found to be 0.000196 s⁻¹ and the kon came out at 77400 M⁻¹ s⁻¹. Further, in test [6], the equilibrium dissociation constant (Kd) is 1.25 nM, the koff is 0.000109 s⁻¹ and the kon was determined as 87500 M⁻¹ s⁻¹. The “% Inhibition … (antibody at 900 ng/mL)” value in test [5] is -9.8%.

B3: anti-CD39 monoclonal antibody 5-71A (antibody, V domains shown)
VH: DVQLVESGGGLVQPGGSRKLSCAASGFTFSSFGMHWVRQAPEKGLELVAYISSGSTIRYYSDTVKGRFTISRDNPKNTLFLQMTSLRSEDTAMYYCARFLYEGFRYGMDYWGQGTSVTVSS
VL: DVLMTQTPLSLPVSLGDQASISCRSSQSIVHSNGNTYLEWYLQKPGQSPKLLIYKVSNRFSGVPDRFSGSGSGTDFTLKISRVEAEDLGIYYCFQGSHVPNTFGGGTKLEIK
notes: purified mouse hybridoma antibody, IgG2a isotype; also called R21-5-71A; R29-5-71A
In test [1], B3 showed a half-maximal effective concentration (EC50) of 0.09 nM. Moreover, the “% Inhibition of ATPase Activity in ARH-77 cells (antibody at 1200 ng/mL)” value in test [2] worked out at 3.6%. In addition, in test [4], the Kd was found to be 0.73 nM, the koff is 5.22e-05 s⁻¹ and the kon amounted to 71100 M⁻¹ s⁻¹. For the same molecule, in test [7], the Kd stood at 0.09 nM, the koff was 1.4e-05 s⁻¹ and the kon was found to be 153000 M⁻¹ s⁻¹.

B4: anti-CD39 monoclonal antibody 5-13A (antibody, V domains shown)
VH: QVQLQQSGPELVKPGASVRISCKASGYTFTGYYVHWVKQRPGQGLEWIGWIYPGNVNTKYNEKFKAKATLTADKSSSTGYMQLSRLTSEDSAVYFCARSPYYGTTYYYTMDYWGQGTSVTVSS
VL: EIVLTQSPAFMAASPGEKVTITCSVSLIISSRNLHWYQQKSETSPKPWIYGTSNLASGVPVRFSGSGSGTSYSLTISSMEAEDAATYYCQQWSDYPLTFGSGTKLEIK
notes: purified mouse hybridoma antibody, IgG2a isotype; also called R21-5-13A; R29-5-13A
B4 had an EC50 in test [1] of 0.18 nM. For the same molecule, in test [2], the “% Inhibition of ATPase Activity in ARH-77 cells (antibody at 1200 ng/mL)” value is -6.2%. The “% Inhibition of ATPase Activity in IM-9 cells (antibody at 1200 ng/mL)” value in test [3] amounted to 0.8%. For the same molecule, in test [4], the Kd worked out at 1.52 nM, the dissociation rate constant (koff) is 0.000159 s⁻¹ and the kon amounted to 105000 M⁻¹ s⁻¹. Further, in test [7], the Kd was 1.16 nM, the koff came to 0.000221 s⁻¹ and the kon came out at 191000 M⁻¹ s⁻¹. In addition, the “% Inhibition … (antibody at 900 ng/mL)” value in test [5] is -4.4%.
